Source: PMC4258114

Tested on: SaiR-His6 (Bacillus anthracis str. Sterne 7702)
Test: restriction enzyme

spxA2 SaiR site 1 wild-type (oMN14-666/oMN14-667)
K half: 6 nM
